The values that follow come from article PMC13245405, “Stable inheritance of the Streptomyces linear plasmid SCP1 by dual ParABS partition systems” (Nucleic Acids Research, 2026).

Data set [1] concerns the target T1, ParB1 (Streptomyces coelicolor, UniProt Q9AD11, S109A).
T1 construct: ParB1-His6, C-terminal His6 kept, pET21b, codon-optimized synthetic gene, E. coli Rosetta (BL21 DE3) pLysS; dimer
Nature of the data set: CTP binding test in supplement. To be noted: 1 mM CTP with parS1 if DSF as in methods.

For data set [2], the target named is T2, ParB2 (Streptomyces coelicolor, UniProt Q9ACT0, N55A).
T2 construct: ParB2-His6, C-terminal His6 kept, pET21b, codon-optimized synthetic gene, E. coli Rosetta (BL21 DE3) pLysS; dimer
Briefly: CTP binding test in supplement. As to conditions: 1 mM CTP with parS2 if DSF as in methods.

The target of data set [3] is T3, ParB1 (Streptomyces coelicolor, UniProt Q9AD11, S110A).
T3 construct: ParB1-His6, C-terminal His6 kept, pET21b, codon-optimized synthetic gene, E. coli Rosetta (BL21 DE3) pLysS; dimer
Briefly: CTP binding test in supplement. To be noted: 1 mM CTP with parS1 if DSF as in methods.

In data set [4] the target is T4, ParB1 (Streptomyces coelicolor, UniProt Q9AD11, N54A).
T4 construct: ParB1-His6, C-terminal His6 kept, pET21b, codon-optimized synthetic gene, E. coli Rosetta (BL21 DE3) pLysS; dimer
Briefly: CTP binding test in supplement. As to conditions: 1 mM CTP with parS1 if DSF as in methods.

In data set [5] the target is T5, ParB1 (Streptomyces coelicolor, UniProt Q9AD11).
T5 construct: ParB1-His6, C-terminal His6 kept, pET21b, codon-optimized synthetic gene, E. coli Rosetta (BL21 DE3) pLysS; dimer
Briefly: isothermal titration calorimetry. Type of data set: binding. (In ITC the heat of successive injections is recorded.)

Data set [6] concerns the target T6, ParB2 (Streptomyces coelicolor, UniProt Q9ACT0, R57A).
T6 construct: ParB2-His6, C-terminal His6 kept, pET21b, codon-optimized synthetic gene, E. coli Rosetta (BL21 DE3) pLysS; dimer
Nature of the data set: CTP binding test in supplement. As to conditions: 1 mM CTP with parS2 if DSF as in methods.

Data set [7] deals with T7, ParB2 (Streptomyces coelicolor, UniProt Q9ACT0).
T7 construct: ParB2-His6, C-terminal His6 kept, pET21b, codon-optimized synthetic gene, E. coli Rosetta (BL21 DE3) pLysS; dimer
Briefly: differential scanning fluorimetry (Tycho). In kind it is binding. To be noted: 1 mM CTP, 4 µM ParB2 dimer, with 2 µM parS2 DNA; 100 mM Tris-HCl, 250 mM NaCl, 1 mM MgCl2, 5% glycerol, pH 8.0. Background: DSF heats the sample and reads unfolding from a dye or from intrinsic fluorescence.

Data set [8] has as its target T7, ParB2. Nature of the data set: isothermal titration calorimetry. Type of data set: binding.
The target in data set [9] is T8, ParB1-His6 WT (Streptomyces coelicolor A3(2), plasmid SCP1) (UniProt Q9AD11).
T8 sequence: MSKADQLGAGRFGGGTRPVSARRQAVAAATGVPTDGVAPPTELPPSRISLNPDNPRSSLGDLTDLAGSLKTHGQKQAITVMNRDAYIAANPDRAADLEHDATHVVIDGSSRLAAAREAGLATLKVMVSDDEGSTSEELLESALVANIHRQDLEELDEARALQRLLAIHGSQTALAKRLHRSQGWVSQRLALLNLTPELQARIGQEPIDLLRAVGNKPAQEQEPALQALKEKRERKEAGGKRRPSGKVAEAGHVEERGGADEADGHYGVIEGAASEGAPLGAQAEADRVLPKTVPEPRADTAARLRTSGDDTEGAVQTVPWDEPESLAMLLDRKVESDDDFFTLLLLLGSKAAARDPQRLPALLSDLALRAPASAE
Briefly: BLI. As to conditions: 1 mM CTP; BLI: 100 mM Tris-HCl pH 8, 100 mM NaCl, 1 mM MgCl2, 0.005% Tween 20, 25 C; ParB 0.0625-2 uM (50 bp) or 1 uM (190 bp).

The target in data set [10] is T9, ParB2-His6 WT (Streptomyces coelicolor A3(2), plasmid SCP1) (UniProt Q9ACT0).
T9 sequence: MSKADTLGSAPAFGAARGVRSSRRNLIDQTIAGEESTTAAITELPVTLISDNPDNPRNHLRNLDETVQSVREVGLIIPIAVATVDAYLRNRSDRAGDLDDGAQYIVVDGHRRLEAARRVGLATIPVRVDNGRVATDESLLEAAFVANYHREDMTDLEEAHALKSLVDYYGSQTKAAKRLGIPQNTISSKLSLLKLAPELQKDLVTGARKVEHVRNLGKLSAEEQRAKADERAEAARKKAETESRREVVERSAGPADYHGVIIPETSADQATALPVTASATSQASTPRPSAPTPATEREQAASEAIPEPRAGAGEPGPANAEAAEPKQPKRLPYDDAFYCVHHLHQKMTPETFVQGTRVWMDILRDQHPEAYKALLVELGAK
Nature of the data set: BLI. As to conditions: 1 mM CTP; BLI: 100 mM Tris-HCl pH 8, 100 mM NaCl, 1 mM MgCl2, 0.005% Tween 20, 25 C; ParB 0.0625-2 uM (50 bp) or 1 uM (190 bp).

The next data set concerns the target T10, ParB2-His6 WT (Streptomyces coelicolor A3(2), plasmid …, UniProt Q9ACT0 1-381).
T10 sequence: T9 sequence
Briefly: BLI; no CTP; BLI: 100 mM Tris-HCl pH 8, 100 mM NaCl, 1 mM MgCl2, 0.005% Tween 20, 25 C; ParB 0.0625-2 uM (50 bp) or 1 uM (190 bp). As to conditions: protein: recombinant; tags: C-terminal His6; chain copies: 2; label: 5' biotin on strand 1; blunt. For orientation: In BLI a coated tip is dipped into the sample, and binding shifts an interference pattern.

In a further data set the target is T11, His6-ScParB WT (Streptomyces coelicolor, UniProt Q9S6U1 1-328).
T11 sequence: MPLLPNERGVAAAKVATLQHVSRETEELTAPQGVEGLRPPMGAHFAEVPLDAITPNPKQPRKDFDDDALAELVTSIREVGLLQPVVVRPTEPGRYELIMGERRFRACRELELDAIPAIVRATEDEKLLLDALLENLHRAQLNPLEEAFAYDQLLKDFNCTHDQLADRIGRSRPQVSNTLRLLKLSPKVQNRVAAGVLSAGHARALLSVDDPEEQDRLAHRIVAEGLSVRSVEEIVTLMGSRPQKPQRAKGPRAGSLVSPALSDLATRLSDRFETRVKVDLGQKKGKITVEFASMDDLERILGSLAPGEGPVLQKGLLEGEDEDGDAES
Described as above. To be noted: protein: recombinant, tags: N-terminal His6, chain copies: 2, label: 5' biotin on strand 1, blunt.

For another data set, the target named is T12, ParB1-His6 WT (Streptomyces coelicolor A3(2), plasmid …, UniProt Q9AD11 1-375).
T12 sequence: T8 sequence
The description is as above. As to conditions: protein: recombinant, tags: C-terminal His6, chain copies: 2, label: 5' biotin on strand 1, blunt.

Where [11] appears, read: printed strands give one G:G mismatch at site centre.

For orientation: Kd means the free concentration of one partner at which half of the binding sites on the other are occupied at equilibrium, for simple one-to-one binding.

T6 sequence (Q9ACT0 entry or part of it R57A): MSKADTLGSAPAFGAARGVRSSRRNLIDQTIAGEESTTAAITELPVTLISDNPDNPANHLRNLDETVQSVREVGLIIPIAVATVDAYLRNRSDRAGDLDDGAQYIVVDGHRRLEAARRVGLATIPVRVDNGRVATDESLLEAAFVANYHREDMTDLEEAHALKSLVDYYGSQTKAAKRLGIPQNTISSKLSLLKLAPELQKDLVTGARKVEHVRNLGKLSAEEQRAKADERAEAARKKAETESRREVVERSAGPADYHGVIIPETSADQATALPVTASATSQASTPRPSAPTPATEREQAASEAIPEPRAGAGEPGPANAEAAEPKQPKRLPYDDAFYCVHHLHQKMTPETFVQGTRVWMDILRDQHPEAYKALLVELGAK
T3 sequence (Q9AD11 entry or part of it S110A): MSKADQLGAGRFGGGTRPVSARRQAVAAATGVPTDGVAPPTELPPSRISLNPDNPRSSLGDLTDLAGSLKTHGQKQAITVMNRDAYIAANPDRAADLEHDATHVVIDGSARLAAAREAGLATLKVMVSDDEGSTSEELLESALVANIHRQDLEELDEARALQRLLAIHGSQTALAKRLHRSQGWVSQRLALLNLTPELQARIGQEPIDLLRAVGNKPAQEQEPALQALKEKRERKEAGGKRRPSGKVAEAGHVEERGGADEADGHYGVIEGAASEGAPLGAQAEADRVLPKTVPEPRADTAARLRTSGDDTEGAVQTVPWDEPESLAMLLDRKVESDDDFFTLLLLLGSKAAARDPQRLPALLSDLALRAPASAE
T1 sequence (Q9AD11 entry or part of it S109A): as the sequence (Q9AD11 entry or part of it S110A) above, with S109A, A110S counted along it
T4 sequence (Q9AD11 entry or part of it N54A): as the sequence (Q9AD11 entry or part of it S110A) above, with N54A, A110S counted along it
T2 sequence (Q9ACT0 entry or part of it N55A): as the sequence (Q9ACT0 entry or part of it R57A) above, with N55A, A57R counted along it

With `Nc1ccn([C@@H]2O[C@H](COP(=O)(O)OP(=O)(O)OP(=O)(O)O)[C@@H](O)[C@H]2O)c(=O)n1` [CTP], the “CTP binding test in supplement” value on ParB1 [1] is “ParB1 N54A, S109A, and S110A or ParB2 N55A and R57A still bound CTP”; on ParB2 [2] it was “ParB1 N54A, S109A, and S110A or ParB2 N55A and R57A still bound CTP”; on ParB1 [3], “ParB1 N54A, S109A, and S110A or ParB2 N55A and R57A still bound CTP”; at ParB1 [4], “ParB1 N54A, S109A, and S110A or ParB2 N55A and R57A still bound CTP”; at ParB2 [6], “ParB1 N54A, S109A, and S110A or ParB2 N55A and R57A still bound CTP”. Further, at ParB1 [5], binding was characterised by a dissociation constant (Kd) of 31.6 ± 17.8 µM. The “differential scanning fluorimetry (Tycho)” value on ParB2 [7] is “only when ParB1 or ParB2 was incubated with both their cognate parS site and CTP”.

Take `Nc1ccn([C@@H]2O[C@H](COP(=O)(O)OP(=O)(O)OP(O)(O)=S)[C@@H](O)[C@H]2O)c(=O)n1` [CTPγS]: the Kd at ParB2 [8] stood at 12.5 ± 5.05 µM; at ParB1 [5], 28.2 ± 5.9 µM.

parS1 190-bp closed loop: in [9], the binding signal (fold BLI signal vs no CTP) is 4.

For parS2 190-bp closed loop, the binding signal (fold BLI signal vs no CTP) in [10] turned out to be 3.

B1: parS2 50 bp (dsDNA)
DNA 1: AGCAGGCCCCGCCGATTATCACGGCGTGATAATCCCGGAGACGTCCGCTG
DNA 2: CAGCGGACGTCTCCGGGATTATCACGCCGTGATAATCGGCGGGGCCTGCT
In the case of B1, the dissociation constant Kd in the data set with ParB2-His6 WT was 0.377 ± 0.055 µM. The binding result in the data set with His6-ScParB WT is recorded as “no binding”.

B2: scrambled parS 50 bp (dsDNA)
DNA 1: GGCCCTGGGTATTCCCTCCGGGACTCGAAGGACGAACGACGCTCGCACAT
DNA 2: ATGTGCGAGCGTCGTTCGTCCTTCGAGTCCCGGAGGGAATACCCAGGGCC
As for B2, the binding result with ParB2-His6 WT, in the data set with His6-ScParB WT and with ParB1-His6 WT was “no binding” in each case.

B3: parS1 50 bp (dsDNA)
DNA 1: CTTCGGACGCGGCACCCTCTATTACGGCGTAATGGCCGTCTGCCTCATCC
DNA 2: GGATGAGGCAGACGGCCATTACGGCGTAATAGAGGGTGCCGCGTCCGAAG
As to B3, the binding result with His6-ScParB WT (setting [11]) is reported as “no binding”. Moreover, in the data set with ParB1-His6 WT (setting [11]), the dissociation constant (Kd) came to 0.386 ± 0.042 µM.

B4: ScparS 50 bp (dsDNA)
DNA 1: TCGGGGATGGTGTTTCGCGTTTCACGTGAAACAACCCCAGCGTACCGGGC
DNA 2: GCCCGGTACGCTGGGGTTGTTTCACGTGAAACGCGAAACACCATCCCCGA
Turning to B4, the binding result with ParB2-His6 WT and with ParB1-His6 WT was “no binding” each time. Further, the Kd with His6-ScParB WT worked out at 0.331 ± 0.064 µM.
